2 molecules from article PMC2838536 (Human Molecular Genetics, 2010) can be followed below.

The target of assay [1] is GST-Magmas_(F92G) (in MagmasJ+T) (human). In words: pull-down.
Assay [2] addresses T1, his6-tagged full-length Pam18 (S. cerevisiae, UniProt Q07914 1-168).
T1 sequence: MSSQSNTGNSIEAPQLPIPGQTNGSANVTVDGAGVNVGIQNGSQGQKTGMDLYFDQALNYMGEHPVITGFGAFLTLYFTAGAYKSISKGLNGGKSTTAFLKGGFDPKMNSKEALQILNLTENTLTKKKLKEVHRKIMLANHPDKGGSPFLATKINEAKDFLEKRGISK
In words: pull-down.

B1: his6-tagged Pam18J+T (domain or fragment)
chain: KSISKGLNGGKSTTAFLKGGFDPKMNSKEALQILNLTENTLTKKKLKEVHRKIMLANHPDKGGSPFLATKINEAKDFLEKRGISK
As for B1, in assay [1], the “fold reduction in the binding affinity against wild-type Magmas” value amounted to 2 fold.

B2: full-length GST-Magmas (natural protein)
chain: MAKYLAQIIVMGVQVVGRAFARALRQEFAASRAAADARGRAGHRSAAASNLSGLSLQEAQQILNVSKLSPEEVQKNYEHLFKVNDKSVGGSFYLQSKVVRAKERLDEELKIQAQEDREKGQMPHT
Take B2: the binding result in assay [2] is “binds”.
